Data from the supplement of paper PMC12764529.
± gives the half width of the 95% confidence interval.

Assay: folding stability dG unfold (combined trypsin and chymotrypsin); higher = more stable
Procedure, shortened: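 K50 was inferred by Bayesian fitting of sequencing counts obtained after protease digestion of designed mini-proteins. Unfolding free energy was derived by comparison with a sequence-predicted unfolded-state K50 and a shared folded-state K50, for each protease or both combined. The mini-proteins were under 80 residues, had no cysteine, were carried in a PA-tagged cDNA display construct, and were kept only if AlphaFold2 dimer inter-PAE exceeded 15.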

Sequence	folding stability dG unfold
SAGGSAGGSDIEIIINPNMSLEQAKKFANYLAQENNIPIEIEIIPPPKPEPEPERDPEDGKPKSAGGSAGGS [r12_159_TrROS]	< -1 kcal/mol
SAGGSAGGSGHHHMTTRTSTSTDPATGSTTVTTTRTTTDGGTVTTTTTLPPPAATTTTSTTTSSAGGSAGGS [r12_1029_JUSTAS]	-0.165 ± 0.11 kcal/mol
SAGGSAGGSASLVVVTTKPPNGPETVELTTDYPPDVRRVTTDPKTGATSEVVVLPADAVLPSAGGSAGGSAG [r3_356_JUSTAS]	0.295 ± 0.2 kcal/mol
SAGGSAGGSAGGMTVTVTVPPEKVEETIKKLGSKAKSVEREVLETPLGEKVAVVTVTLENSAGGSAGGSAGG [r7_904_JUSTAS]	0.047 ± 0.093 kcal/mol
SAGEYKVEEKDGKLYVTYPNGEKKEVEVKPAPPPVVTIKVKSVEELKALAEELNLEITEISEDTVVVKFSAG [r5_328_TrROS_Hall]	-0.643 ± 0.62 kcal/mol
SAGGSAGGSAGGSKKKKKKPKKVLLVRNKKTKKLYVFKTKEEAKKAGFEIVKDGKIKKKSAGGSAGGSAGGS [r4_306_TrROS_Hall]	0.0938 ± 0.41 kcal/mol
SAGGSAGGSAGGRIRLRTELLVRREDGSLSRFRETAVFEVEARPRPVPAPRAYRDANGRLVSAGGSAGGSAG [r3_252_TrMRF]	-0.558 ± 0.13 kcal/mol
SAGGSAGGSAGMVIPSTSPEEAVEKLRELVEKRGDFLVDVKPTEVHPDGTVVIETKKKPLSAGGSAGGSAGG [r17_430_JUSTAS]	-0.269 ± 0.21 kcal/mol
SAGGSAGGKEVKVTLEYDEETGTLTLTVETPDGYVFKLEITFEKDEDGNLKVTIKLEVIPLEDLSAGGSAGG [r6_537_TrROS_Hall]	4.39 ± 0.61 kcal/mol
SAGGSAGGSAGGVTVSPEEYLATFPPGLTLRDSAGNLHELGDRAPVDPAAPVTLLSPEELSAGGSAGGSAGG [r7_507_JUSTAS]	-0.18 ± 0.12 kcal/mol
SAGGSAGGNTIELPLPNGMELEIPVQKNPEGYYQVNIERYDPDDGKKKEIPFTMPAEDIKDFLKSAGGSAGG [r6_859_TrROS]	-0.785 ± 0.36 kcal/mol
SAGGMKIEKTPVKIEKEGEDTVIEYKETEYLPDGTVKEYEGILRIPKNTGKITTLEKKLLSTEPILGSAGGS [r16_729_JUSTAS]	< -1 kcal/mol
SAGGSAGGSAGKKTLYVIKIELSDEQLKEAKKEGKPLKLKAEIVEVKPVKVEVKKEYKKESAGGSAGGSAGG [r11_26_TrROS_Hall]	-0.167 ± 0.56 kcal/mol
SAGGSAGGSAGKKKVLILGGDAVATAKELKKLGEDVEVEVLESGEDLEEHLKNYDLVLSGSAGGSAGGSAGG [r17_225_TrMRF]	0.106 ± 0.27 kcal/mol
SGMTTPVAEIDNTDGKPEKVKEWIKKTIPKTPPVTVTRTLASGAPSTWTIDPNTGKVTESVPGGHVTVAASA [r9_853_JUSTAS]	< -1 kcal/mol
SPAPPMRIDNIKPEKEDPNGDERKYRVYWQGPNGRPYHYEGPLEELEDMLDEDNIDPDNFWPGDEITIKVSA [r9_1078_TrROS]	0.421 ± 0.31 kcal/mol
SAGGSAGGDIKIEDIEYEQNPGGWQKVEVRLPGNGRPIEVPVPPGMPYEQAKDWAKDWAEELLKSAGGSAGG [r6_628_TrROS]	0.511 ± 0.22 kcal/mol
SAGRRSLVLLAPVDDPARAPTAEELARELLALGGTPATRPRAEPLEDDTLRVTFEAPGVDVTVLVDLRASAG [r5_144_TrMRF]	0.138 ± 0.11 kcal/mol
SAGGSAGGSEEFVILEIPFERKFVVKDPEGGEEREFEFRPVIPLVLPPELAEKLLKSPYLQKKSAGGSAGGS [r12_1015_TrMRF]	0.416 ± 0.22 kcal/mol
SAGGSAGGTIRIPPAARNMMKELQKQGFVIEEIKIDEIERTENGPPWIEIDFEIKKLPPEALKDSAGGSAGG [r6_771_TrROS]	-0.939 ± 0.89 kcal/mol
SAGGSAGGSASLIVISPPGAPRTIPLEGLVEKGIPEREAAELLEKELGIEINLSEPGVIRAKSAGGSAGGSA [r18_7_JUSTAS]	-0.186 ± 0.12 kcal/mol
SAGGSAGGSIEINPNGNFKIRFRGGNRPQTHTIPIKPGETLDTIKDTIRKHMGPNFPEVEIERSAGGSAGGS [r12_300_TrROS]	-0.152 ± 0.13 kcal/mol
SAGMKIKVTIERGGDRAERILPPEEAKALLDKYPEDGEIPLDLEGEEVTVKIEKTPPALPTEEAIKELKSAG [r5_669_JUSTAS]	< -1 kcal/mol
SKPITADEIAKHFPGIKDVEPTPNKKRLDFDNPNGHKPTIEVSPDGTIMIEHQNPDNGQKQEQEIPIDDLSA [r9_427_TrROS]	0.0598 ± 0.26 kcal/mol
